How the values were obtained:
[1] = biological target: T1, staphylococcal enterotoxin A (Staphylococcus aureus, strain , UniProt P0A0L2); assay: ELISA
T1 construct: source: bought: Toxin Technology

[2] = biological target: T2, staphylococcal enterotoxin E (Staphylococcus aureus, strain , UniProt P12993); assay: ELISA
T2 construct: source: bought: Toxin Technology

[3] = biological target: T3, staphylococcal enterotoxin C1 (Staphylococcus aureus, strain , UniProt P01553); assay: ELISA; details: both partners purified
T3 construct: source: bought: Toxin Technology

[4] = biological target: T4, staphylococcal enterotoxin D (Staphylococcus aureus, strain , UniProt P20723); assay: ELISA
T4 construct: source: bought: Toxin Technology

[5] = biological target: biotin-labeled staphylococcal enterotoxin E (Staphylococcus aureus, strain , UniProt P12993, biotin (site not stated)); assay: SPR; Biacore T200; […]; 25°C; […]; details: both partners purified
[6] = biological target: biotin-labeled staphylococcal enterotoxin A (Staphylococcus aureus, strain , UniProt P0A0L2, biotin (site not stated)); assay: SPR; Biacore T200; […]; 25°C; […]; details: both partners purified

B1: anti-SEA antibody HPK-018_1B6, recombinant IgG1 (antibody, V domains shown)
VH: EVQLVESGGEVKKPGASVKVSCKTSGYTFSSYYMHWVRQAPGQGLEWMGVINPSGGSIKYAQKFQGRVTMTRDTSTTTIYMDLSSLRSDDTAVYYCAYWGADGFDIWGQGTMVTVSS
VL: QSVLTQPPSASGTPGQRVTISCSGSSSNIGSNSVNWYQQVPGTAPKLLTYGNNQRRSGVPDRFSGSKSGTSASLAISGLQSEDEADYSCAVWDDSLSAWVFGGGTKLTVL
notes: source: HEK 293T, transfected, culture supernatant
B1: binds ([1]; one partner purified).

B2: anti-SEE antibody HPK-016_203, recombinant IgG1 (antibody, V domains shown)
VH: EVQLVESGAEVKKPGESLKISCKGSGNTFTNYWIAWVRQRPGKGLEWMGIIYPGDSDTRYSLSFQGQVTISVDKSINTAYLQWSSLRASDTAIYFCVRHCSGGRCSSAPLDSWGQGTLVTVSS
VL: NFMLTQPPSVSESPGKTVTISCTRSSGSIGTYYVHWYQQRPGSAPTTLIYDDSHRPSGVPDRFSGSVDSSSNSASLIISGLKTEDEADYYCLSHDTTNFVFGGGTKLTVL
notes: also called 203 IgG1
B2: no binding ([1]; both partners purified); binds ([2]; one partner purified); binds [3]. B2: no binding ([4]; both partners purified); binds [5].

B3: anti-SEE antibody HPK-014_1G2, recombinant IgG1 (antibody, V domains shown)
VH: QVQLVESGGGVVPPGGSLRLSCATSGFKFNDYDMHWVRQAPGKGLEWVASIRYHGNKDYYADSVKGRFTISRDNSKNTLSLQMNSLRPEDTAIFYCARDRAQGIVAAAGTSFGYWGQGTLVTVSS
VL: SYELTQPPSVSVSPGQTARITCSADALPKQYVYWYQQKSGQAPVLVMYKDSERPSGIPERFSGSTSGSTVMLTISGVQEEDEAVYYCQSGDTSGFDPDVAFGGGTKLTVL
notes: also called 1G2 IgG1
B3: no binding ([1]; both partners purified); binds ([2]; one partner purified); binds [3]. B3: no binding ([4]; both partners purified); binds [5].

B4: anti-SEE antibody HPK-014_1G2, Fab (Fab, V domains shown)
VH: QVQLVESGGGVVPPGGSLRLSCATSGFKFNDYDMHWVRQAPGKGLEWVASIRYHGNKDYYADSVKGRFTISRDNSKNTLSLQMNSLRPEDTAIFYCARDRAQGIVAAAGTSFGYWGQGTLVTVSS
VL: SYELTQPPSVSVSPGQTARITCSADALPKQYVYWYQQKSGQAPVLVMYKDSERPSGIPERFSGSTSGSTVMLTISGVQEEDEAVYYCQSGDTSGFDPDVAFGGGTKLTVL
notes: source: Expi293, purified (LambdaFabSelect agarose)
B4: binds ([2]; both partners purified).

B5: anti-SEE antibody HPK-014_1G2, recombinant IgE (antibody, V domains shown)
VH: QVQLVESGGGVVPPGGSLRLSCATSGFKFNDYDMHWVRQAPGKGLEWVASIRYHGNKDYYADSVKGRFTISRDNSKNTLSLQMNSLRPEDTAIFYCARDRAQGIVAAAGTSFGYWGQGTLVTVSS
VL: SYELTQPPSVSVSPGQTARITCSADALPKQYVYWYQQKSGQAPVLVMYKDSERPSGIPERFSGSTSGSTVMLTISGVQEEDEAVYYCQSGDTSGFDPDVAFGGGTKLTVL
notes: also called 1G2 IgE; anti-SEE IgE 1G2
B5: binds ([2]; both partners purified).

B6: anti-SED antibody HPK-014_1A4, recombinant IgG1 (antibody, V domains shown)
VH: EVQLLESGGGLVQPGGSLRLSCAASGFNFDSYAMSWVRQAPGKGLEWVSSISSSGGATYYADSVKGRSTISRDNSKNTVSLQMNSLRAEDTAVYYCAKKRRYDAVTGYLFDMWGQGTMVTVSS
VL: DIVMTQSPFSLAVSLGERATMNCKSSQSVLHSSNNENYLAWYQQKPGQPPKLLIYWASTRESGVPDRFSGSGSGTDFTLTISSLQAEDVAVYYCQQFYSPAPYTFGQGTKLEIK
notes: as for B1
B6: binds ([4]; one partner purified).

B7: anti-SEA antibody 1F3, recombinant IgG1 (antibody, V domains shown)
VH: QVQLVESGTDVKKPGSSVKVSCKTSGGTFGDHGITWVRQAPEKGLEYVGRIIPNPGTAYHAQKFQGRVTITADESTGTAYLELSRLSFDDTAVYYCARGMTGYVGAYDYWGQGTLVTVSS
VL: QSVLTQPPSASGTPGQRVSISCSGSSSNIGSNSVSWYQLLPGTAPKLLIYFSHQRPSGVPDRFSASKSGTSASLAISDLQPEDEADYYCASWDDRLNGPVFGGGTKLTVL
notes: also called 1F3 IgG1; HPK-016_1F3
B7: binds ([1]; both partners purified); no binding ([2]; both partners purified); binds [6].

B8: anti-SED antibody HPK-018_2D6, recombinant IgG1 (antibody, V domains shown)
VH: QVQLVQSGGGLVQPGRSLRLSCRASGFTFGEYAMSWVRQAPGKGVEWVSFIRSRTYGATTEYAASVKGRFTISRDDSESIVYLQMNSLKTEDTAVYYCTTYCSSTSCQIDYWGQGTLVTVSS
VL: QSALTQPPSASALLGASIKLTCTLSSEHSTYIIEWFQQRPGRSPQYIMDVKSDGSYTKGDGIPDRFMGSSSGADRYLTLSNLQSDDEAEYYCGESHTIDGQVGYVFGTGTKVTVL
notes: as for B1
B8: binds ([4]; one partner purified).

— publication PMC5380656 (The Journal of Allergy and Clinical Immunology, 2017)
